Assay results: patent publication US20260132208A1

How the values were obtained:
human CCR8 (human) [1] = biological target: human CCR8 (human) (UniProt P51685); assay: flow cytometry on lymphocytes from ovarian cancer ascites, 1 µg antibody
human CCR8 (human) [2] = biological target: human CCR8 (human) (UniProt P51685); assay: flow cytometry on lymphocytes from ovarian cancer ascites, 0.1 µg antibody
human CCR8 (human) [3] = biological target: human CCR8 (human) (UniProt P51685); assay: flow cytometry on lymphocytes from ovarian cancer ascites, 0.5 µg antibody
human CCR8 (human) [4] = biological target: human CCR8 (human) (UniProt P51685); assay: cell-based or functional assay
human CCR8 (human) [5] = biological target: human CCR8 (human) (UniProt P51685); assay: flow cytometry, hCCR8-transfected CHO-K1 cells

Row | Positive cells (human CCR8 (human) [1]) | Positive cells (human CCR8 (human) [2]) | Positive cells (human CCR8 (human) [3]) | EC80 of hCCL1, hCCR8 Gi2 BRET, HEK-293 in suspension (human CCR8 (human) [4]) | EC80 of hCCL1, hCCR8 Gi2 BRET, adherent HEK-293 (protocol #4) (human CCR8 (human) [4]) | % positive cells (human CCR8 (human) [5]) | MFI fold change to isotype ctrl (human CCR8 (human) [5]) | Substance
1 | 5.06% | 2.94% | 3.81% | – | – | – | – | Isotype ctrl (antibody)
2 | – | – | – | 6 nM | 0.6 nM | – | – | human CCL1 (from UniProt P22362 24-96) (ligand)
3 | 8.64% | 9.5% | 9.86% | – | – | 86.5% | 19.8 fold | murine anti-human CCR8 monoclonal antibody L263G8
